This passage reports Kd and Km results from paper PMC5360189 (Molecular cell, 2016).

For one data set, the target named is Clo SugE. Format: binding, Clostridiales bacterium oral taxon 876.
Substrate in data set [1]: N=C(N)N
The experiment in a line: purified protein.

Substrate in data set [2]: NC(N)=O
The experiment in a line: purified protein.

For the molecule `N=C(N)N` [guanidine], on Clo SugE, the Kd is approximately 1000 µM.

B1: urea carboxylase (guanidine carboxylase) (Oleomonas sagaranensis) (protein)
chain: MFKKILIANRGEIAARVIKTARKMGIATVAVHSEADRFTLPVLAADEAICLGPAPAKESYLRAEAIVQACIDTGAEAVHPGYGFLSENAGFAEALAAKGIRFIGPRPEHLRDFGLKHTARALAEAAGVPLLPGTGILLSAEEALAAAHEIGYPVMLKSTAGGGGIGMSLCHDASELQARFEAVQRMASSSFGDARVYIERFVSTARHVEVQIFGDGKGNVVALGERDCSLQRRNQKVVEETPAPGLSPELRARLHAAAVALGKAVAYESAGTVEFIYDVARGDFSFLEVNTRLQVEHPVTESVFGVDLVEWMIRQAAGELLLPAQGSLVPRGAAIEVRLYAENPQANFRPQTGRLTEVAFPDDIRVDTWVATGTEVTPFYDPMLAKVIVTGADRPAAIAALSDALAKTKVWGIETNLAYLRAIAASDVFTSGAVSTAALGQFVFTAPTIEVIVAGAQTSVQDWPGRLGLWDVGVPPSGPFDDRSFRLANRILGNAEGAAGLECTLSGPTLKFHGDALIALAGAEMPAALDGVAVPMLTAIPVKAGQTLSLGQIKGAGQRTYLAVRGGIDGPKFLGARACFSLGQFGGHATGVLKAGDTLHIAAETAGEPMPADEKPLITRDWVIGVHYGPHGAPDFFQDADIDDLFAATYEVHFNSARTGVRLIGPKPRWARADGGEAGLHPSNIHDNAYAIGAIDFTGDMPIILGPDGPSLGGFVCPAVIARDELWKAGQLKPGDKVRFVPHGMAAPQVITSKDIGTPILGTIDGGPVPVVYRRAGDDYLLVEYGPMVLDIALRLRIHLLAQAVREARLPAIIDLTPGIRSLQIHYDSRVLKTATLVAALREIEAGLPPAEAVKVPSRIVHLPLSWNDPSIQLAARKYQELVRPNAPWCPSNIEFIRRINGLGSVDDVQNIIFDASYLVLGLGDVYLGAPVATPVDPRHRLVTTKYNPARTWTPENAVGIGGAYMCIYGMEGPGGYQLFGRTVQMWNAWRTTPVFTPGHPWLLRFFDQIRFFPVSEQELIEAREAFPHGRYPVRIEETTFDYAQHAAFLAAERPAIEAAKARQQTAFEVERQDWKARGLDSFVVEDGPAASDADVPEGQTPVEAQVTGNVWKIIAEEGTNVAAGDIVVIVESMKMEMEIRSPVAGKVTALRCQPGRTVQAGQIVALIEAA
For B1, the Km turned out to be 190 µM in the data set “purified protein [1]” and 5200 µM in the data set “purified protein [2]”.

As usually defined, the Kd is the constant that tells how readily two partners part at equilibrium. A low value points to higher affinity. Usually Km stands for the substrate concentration at which the rate is half of its maximum.
